Where no end group is shown, it is not given here. The star is where a group is joined. Biotin = O=C1N[C@H]2[C@H](CS[C@H]2CCCCC(=O)*)N1
Assays:
[1] = target: proteins of hBMECs (protein extract coated in microtiter wells, ELISA with recombinant ligands) (human (endogenous in hBMECs)); assay: ELISA; protein extract of hBMECs coated in microtiter wells, blocked; recombinant ligand added; detected with HisProbe-HRP conjugate and TMB substrate, absorbance at 450 nm; semi-quantitative
[2] = target: proteins of hBMECs (protein extract coated in microtiter wells, ELISA with synthetic analogues) (human (endogenous in hBMECs)); assay: ELISA; protein extract of hBMECs coated in microtiter wells, blocked; biotinylated synthetic peptide added; detected with streptavidin-HRP conjugate; semi-quantitative

Row | Molecule | absorbance at 450 nm (absorbance at 450 nm) [1] | absorbance [2]
1 | recombinant domain III of protein E of West Nile virus (domain or fragment) | 2.2 | 
2 | recombinant NadA (neisserial adhesin A) of Neisseria meningitidis, globular domain with the first coiled-coil structure (domain or fragment) | 1.14 | 
3 | GTTYGVCSK(Biotin) [DIII-1 synthetic analogue (…-biotin)] |  | 2.06 absorbance
